Experimental findings from PMC4919518 are described below.

Assay in all cases: fluorescence polarization; 5 mM Mg2+; FP: 20 mM HEPES-KOH pH 7.5, 200 mM NaCl, 5 mM MgCl2, 0.01 mg/ml E. coli total tRNA, 0.01% NP-40, 10 pM probe, 25 C; EMSA: 20 mM HEPES-KOH pH 7.5, 200 mM NaCl, 5
(In general: Polarisation of emitted light reports the rotation of a fluorescent probe.)

Series [1] has as its target T1, RsAgo K506A (Rhodobacter sphaeroides (ATCC 17025D-5), UniProt A4WYU7 1-777, K506A).
T1 sequence: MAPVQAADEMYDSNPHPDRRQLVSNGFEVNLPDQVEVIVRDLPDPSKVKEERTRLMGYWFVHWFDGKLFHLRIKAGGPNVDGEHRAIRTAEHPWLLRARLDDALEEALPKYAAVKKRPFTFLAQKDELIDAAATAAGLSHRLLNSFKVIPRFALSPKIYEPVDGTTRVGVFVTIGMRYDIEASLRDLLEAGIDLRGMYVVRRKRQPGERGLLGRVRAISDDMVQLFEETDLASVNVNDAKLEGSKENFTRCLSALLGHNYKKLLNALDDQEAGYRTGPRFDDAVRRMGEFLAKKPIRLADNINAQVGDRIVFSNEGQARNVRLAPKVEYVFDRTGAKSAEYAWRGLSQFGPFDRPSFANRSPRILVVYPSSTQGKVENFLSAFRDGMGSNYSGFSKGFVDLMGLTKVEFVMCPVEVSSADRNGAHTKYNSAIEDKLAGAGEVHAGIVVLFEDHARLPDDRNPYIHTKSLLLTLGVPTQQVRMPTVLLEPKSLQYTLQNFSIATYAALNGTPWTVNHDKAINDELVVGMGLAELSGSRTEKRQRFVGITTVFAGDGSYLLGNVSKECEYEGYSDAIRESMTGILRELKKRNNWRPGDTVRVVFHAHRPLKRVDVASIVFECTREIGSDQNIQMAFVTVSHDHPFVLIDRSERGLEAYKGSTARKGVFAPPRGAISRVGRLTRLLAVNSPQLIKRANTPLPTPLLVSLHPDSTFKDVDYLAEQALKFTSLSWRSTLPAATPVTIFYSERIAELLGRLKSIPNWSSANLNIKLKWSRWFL

Series [2] has as its target T2, RsAgo Y463A/K467A (Rhodobacter sphaeroides (ATCC 17025D-5), UniProt A4WYU7 1-777, Y463A;K467A).
T2 sequence: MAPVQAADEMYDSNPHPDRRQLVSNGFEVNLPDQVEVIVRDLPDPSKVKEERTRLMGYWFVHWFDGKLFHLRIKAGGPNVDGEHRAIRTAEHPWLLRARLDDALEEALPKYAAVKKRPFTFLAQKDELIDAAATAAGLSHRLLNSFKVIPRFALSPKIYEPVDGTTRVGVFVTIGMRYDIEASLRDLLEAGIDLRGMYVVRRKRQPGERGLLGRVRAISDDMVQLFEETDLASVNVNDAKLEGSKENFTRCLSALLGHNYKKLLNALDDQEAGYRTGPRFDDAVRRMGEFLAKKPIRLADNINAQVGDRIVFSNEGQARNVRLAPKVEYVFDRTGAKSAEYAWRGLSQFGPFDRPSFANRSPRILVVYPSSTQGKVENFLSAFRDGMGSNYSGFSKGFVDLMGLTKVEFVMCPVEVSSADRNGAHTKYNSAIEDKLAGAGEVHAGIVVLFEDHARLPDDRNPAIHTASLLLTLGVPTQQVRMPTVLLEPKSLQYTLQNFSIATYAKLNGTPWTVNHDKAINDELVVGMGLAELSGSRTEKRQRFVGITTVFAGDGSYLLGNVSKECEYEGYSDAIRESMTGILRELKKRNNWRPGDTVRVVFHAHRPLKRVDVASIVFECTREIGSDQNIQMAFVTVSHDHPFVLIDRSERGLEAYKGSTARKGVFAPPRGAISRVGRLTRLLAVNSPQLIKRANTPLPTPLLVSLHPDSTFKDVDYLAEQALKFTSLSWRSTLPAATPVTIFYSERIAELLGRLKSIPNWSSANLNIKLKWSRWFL

Series [3] concerns the target T3, RsAgo R481A/T484A (Rhodobacter sphaeroides (ATCC 17025D-5), UniProt A4WYU7 1-777, R481A;T484A).
T3 sequence: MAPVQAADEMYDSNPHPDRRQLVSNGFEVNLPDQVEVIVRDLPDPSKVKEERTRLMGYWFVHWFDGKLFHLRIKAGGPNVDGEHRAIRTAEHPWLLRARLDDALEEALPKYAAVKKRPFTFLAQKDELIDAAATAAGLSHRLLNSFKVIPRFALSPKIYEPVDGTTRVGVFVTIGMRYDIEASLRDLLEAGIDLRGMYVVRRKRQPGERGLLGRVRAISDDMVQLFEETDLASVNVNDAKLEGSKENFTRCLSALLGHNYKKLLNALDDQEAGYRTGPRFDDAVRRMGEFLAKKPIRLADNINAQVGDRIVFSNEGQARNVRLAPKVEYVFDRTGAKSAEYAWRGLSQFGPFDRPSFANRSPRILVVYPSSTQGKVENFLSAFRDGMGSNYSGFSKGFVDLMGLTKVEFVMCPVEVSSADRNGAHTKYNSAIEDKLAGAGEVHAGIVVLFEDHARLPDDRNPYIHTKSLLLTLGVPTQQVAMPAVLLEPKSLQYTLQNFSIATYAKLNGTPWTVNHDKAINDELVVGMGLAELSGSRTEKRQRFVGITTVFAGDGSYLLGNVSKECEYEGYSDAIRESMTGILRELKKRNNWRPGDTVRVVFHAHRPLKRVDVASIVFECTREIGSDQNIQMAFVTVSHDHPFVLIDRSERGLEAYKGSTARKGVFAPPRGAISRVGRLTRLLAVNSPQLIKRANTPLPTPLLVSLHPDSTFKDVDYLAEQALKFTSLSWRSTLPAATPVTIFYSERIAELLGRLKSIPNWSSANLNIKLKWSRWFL

For orientation: Kd means a measure of binding affinity in units of concentration. Turning to UUACAACCUACUACCUCG (ssRNA, 5'-phosphate) [5'P-RNA (5'U-RNA), FAM], the Kd in series [1] was 1030 ± 47 nM; in series [2], 1700 ± 123 nM; in series [3], 718 ± 36 nM.
